Measured values published in patent publication US20190002549A1 (I MAB BIOPHARMA, published 2019).
Substitutions are numbered along the chain they refer to.

B1: Hu23F4-29 (antibody, V domains shown)
VH: EVQLVQSGAEVKKPGASVKVSCKASGYTFTSHYLHWVRQAPGQGLEWMGWIFPGDDKTKYNEKFKGRVTLTSDTSISTAYMELSRLRSDDTAVYYCARGTKYLNWNFDVWGQGTTVTVSS
VL: DIQLTQSPSFLSASVGDRVTITCKANQNVGTTLAWYQQKPGKAPKALIYSASYRYSGVPSRFSGSGSGTEFTLTISSLQPEDFATYYCHQYTTYPLTFGGGTKVEIK
notes: Humanized
B2: Hu23F4-27 (antibody, V domains shown)
VH: B1 VH with L70M
VL: B1 VL with A43S, S60D, E70D, Y87F
notes: Humanized
B3: Hu23F4-25 (antibody, V domains shown)
VH: B1 VH with L70M
VL: B1 VL
notes: Humanized
B4: Hu23F4-36 (antibody, V domains shown)
VH: B1 VH with G26D, F29L, M48I, V68A
VL: B1 VL with A46L
notes: Humanized
B5: Hu23F4-20 (antibody, V domains shown)
VH: B1 VH with L70M, S72R
VL: B1 VL with A46L
notes: Humanized
B6: Hu23F4-13 (antibody, V domains shown)
VH: EVQLVQSGAEVKKPGATVKISCKVSGYTFTSHYLHWVQQAPGKGLEWIGWIFPGDDKTKYNEKFKGRATLTSDTSTDTAYMELSSLRSEDTAVYYCARGTKYLNWNFDVWGQGTTVTVSS
VL: B1 VL with A46L
notes: Humanized
B7: Hu23F4-6 (antibody, V domains shown)
VH: B6 VH with I48M, A68V, L70I
VL: B1 VL
notes: Humanized
B8: Hu23F4-5 (antibody, V domains shown)
VH: B6 VH with I48M, A68V, L70I
VL: B1 VL with A46L
notes: Humanized
B9: Hu23F4-23 (antibody, V domains shown)
VH: B1 VH with L70M, S72R
VL: B1 VL with A43S, S60D, E70D, Y87F
notes: Humanized
B10: 50C5 chimera (antibody, V domains shown)
VH: QVQLQQSAAELVRPGASVKMSCKASGYIFTPYSIHWIKQRPGQGLEWIGYINPSTGYIEYNQHFKDRTTLTADKSSSTAYMQLRSLTSEDSAVYYCARGGDYEGYFDYWGQGTTLTVSS
VL: DIQMTQSPDSLSASVGETVTITCRLNENIYSFLAWYQQRQGKSPQLLVYNAETLAEDVPSRFSGSGSGTQFSLKISSLQTDDFGTYYCQQHYGTPYTFGGGTNLEIE
notes: Human constant regions (captured by anti-human Fc IgG); also called 35230Hu50C5-chimera; Hu50C5-chimera
B11: Hu50C5-6 (antibody, V domains shown)
VH: EVQLVQSGAEVKKPGSSVKVSCKASGYIFSPYSIHWVRQAPGQGLEWMGYINPSTGYIEYNQHFKDRVTITADKSTSTAYMELRSLRSEDTAVYYCARGGDYEGYFDYWGQGTTVTVSS
VL: DIQMTQSPSSLSASVGDRVTITCRLNENIYSFLAWYQQKPGKAPKLLIYNAETLAEGVPSRFSGSGSGTDFTLTISSLQPEDFATYYCQQHYGTPYTFGGGTKVEIK
notes: Humanized; also called 35230Hu50C5-6
B12: Hu50C5-23 (antibody, V domains shown)
VH: B11 VH with S30T, M48I, V68T, I70L
VL: B11 VL with I48V, G57D
notes: Humanized; also called 35230Hu50C5-23
B13: Hu50C5-19 (antibody, V domains shown)
VH: B11 VH with M48I, V68T, I70L
VL: B11 VL with I48V, G57D, D70Q
notes: Humanized; also called 35230Hu50C5-19
B14: Hu50C5-18 (antibody, V domains shown)
VH: B11 VH with M48I, V68T, I70L
VL: B11 VL with I48V, G57D
notes: Humanized
B15: Hu50C5-17 (antibody, V domains shown)
VH: B11 VH with M48I, V68T, I70L
VL: B11 VL with I48V
notes: Humanized; also called 35230Hu50C5-17
B16: Hu50C5-21 (antibody, V domains shown)
VH: B11 VH with S30T, M48I, V68T, I70L
VL: B11 VL
notes: Humanized; also called 35230Hu50C5-21
B17: Hu50C5-8 (antibody, V domains shown)
VH: B11 VH
VL: B11 VL with I48V, G57D
notes: Humanized; also called 35230Hu50C5-8
B18: Hu50C5-11 (antibody, V domains shown)
VH: B11 VH with M48I
VL: B11 VL
notes: Humanized; also called 35230Hu50C5-11
B19: 23F4 chimera (antibody, V domains shown)
VH: QVQLQQSGPELVKPGTSMKISCKTSDYTLTSHYLHWVKQRPGQGLEWIGWIFPGDDKTKYNEKFKGKATLTSDKTSNTAYMQLSSLTSEESAVYFCARGTKYLNWNFDVWGTGTTVTVSS
VL: DIVLTQPQKFLSTSVGDRVSVTCKANQNVGTTLAWYQQKPGQSPKALIYSASYRYSGVPDRFTGSGSGTDFTLTISNVQSEDLAEYFCHQYTTYPLTFGGGTKLEIK
notes: Human constant regions (captured by anti-human Fc IgG); also called Hu23F4-chimera

Legend:
[1] = molecular target: T1, recombinant human GM-CSF protein (human, UniProt P04141 18-144); test: SPR Biacore T200, antibody captured by anti-human Fc, GM-CSF as analyte, 25 C, 1:1 model
T1 construct: Bought recombinant protein (Genscript); also called biotinylated human GM-CSF protein
T1 sequence (P04141 18-144 limits assumed): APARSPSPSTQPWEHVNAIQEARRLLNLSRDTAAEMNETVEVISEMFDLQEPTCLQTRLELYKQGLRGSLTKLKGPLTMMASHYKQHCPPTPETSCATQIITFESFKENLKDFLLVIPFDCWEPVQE
Description: The binding kinetics of humanized antibodies were measured by Biacore as previously described. […] The binding kinetics assay of antibody to antigen was performed using Biacore T200 system through a human antibody capture approach. The anti-human Fc IgG were immobilized on CMS sensor chip according to the manufacturer's instruction. The test antibody was injected and captured by the immobilized anti-human Fc IgG. And then serial concentrations of the antigen were individually injected, and the binding profile was recorded for each concentration of antigen analyte, respectively.
The assay system was regenerated by injection of 10 mM Glycine-HCL pH 1.5 for 30 seconds. The running buffer was HBS-EP+ (10 mM HEPES, pH 7.4, 150 mM NaCl, 3 mM EDTA and 0.05% P20). The assay temperature was 25° C., and the association and dissociation time were 180 and 600 seconds, respectively.

[2] = molecular target: T1, recombinant human GM-CSF protein; test: cell-based or functional assay
[3] = molecular target: T2, recombinant rhesus GM-CSF protein (rhesus, UniProt Q9GL44 18-144); test: ELISA, rhesus GM-CSF coated at 1 ug/ml
T2 construct: Bought recombinant protein (Genscript)
T2 sequence (Q9GL44 entry or part of it limits assumed): as the sequence (P04141 18-144 limits assumed) above, with S9G, E38K, I43V, T53S, R67Q, E104Q counted along it
Description: Recombinant rhesus GM-CSF protein (Genscript) was coated at 1 ug/ml in PBS onto microtiter plates for 2 h at room temperature (RT). After coating of antigen, the wells were blocked with PBS/0.05% Tween (PBST) with 1% BSA for 1 h at RT. After washing of the wells with PBST, different concentrations of humanized anti-GM-CSF antibodies were added to the well and incubated for 1 at RT. For detection of the binding antibodies, the HRP-conjugated secondary antibodies against mouse Fc (Jackson Immuno Research) were added, followed by the addition of fluorogenic substrates (Roche). Between all incubation steps, the wells of the plate were washed with PBST three times. Fluorescence was measured in a TECAN Spectrafluor plate reader.

| Kd [1] [nM] | koff [1] [s⁻¹] | kon [1] [M⁻¹ s⁻¹] | IC50 for TF-1 proliferation [2] [ng/mL] | EC50 [3] [ng/mL] | Binder |
| --- | --- | --- | --- | --- | --- |
| 0.152 | 0.000101 | 667000 | 27.4 | – | B1 |
| 0.102 | 9.46e-05 | 923000 | 3.95 | 6.25 | B2 |
| 0.172 | 0.000109 | 635000 | 12.2 | – | B3 |
| 0.0807 | 0.000103 | 1.27e+06 | 3.3 | 7.75 | B4 |
| 0.142 | 0.000114 | 801000 | 8.77 | – | B5 |
| 0.0935 | 0.00012 | 1.28e+06 | 4.95 | 7.44 | B6 |
| 0.154 | 0.000135 | 876000 | 7.87 | – | B7 |
| 0.104 | 0.000124 | 1.19e+06 | 15.6 | – | B8 |
| 0.13 | 0.000116 | 899000 | 9.08 | – | B9 |
| 0.032 | 0.000142 | 4.43e+06 | 86.5 | – | B10 |
| 0.0311 | 0.000138 | 4.42e+06 | 23.9 | – | B11 |
| 0.0276 | 0.000125 | 4.54e+06 | 14.3 | 21.6 | B12 |
| 0.023 | 0.000106 | 4.62e+06 | 17 | – | B13 |
| 0.0231 | 0.000109 | 4.72e+06 | 41.3 | – | B14 |
| 0.0249 | 0.000111 | 4.47e+06 | 22.1 | 18.9 | B15 |
| 0.0236 | 0.000108 | 4.59e+06 | 21.6 | – | B16 |
| 0.0282 | 0.000139 | 4.91e+06 | 45.9 | – | B17 |
| 0.0312 | 0.000136 | 4.37e+06 | 111 | – | B18 |
| 0.0315 | 3.87e-05 | 1.23e+06 | 8.55 | – | B19 |
